Measurements reported in publication PMC12000561.

Columns and labels:
Test in all cases: EMSA
Conditions in all cases: EMSA: DNA mix 40 mM Tris pH 7.6, 2 mM EDTA, 200 mM NaCl (printed '200 M'), 20% glycerol, 0.2 mg/ml BSA, 2 mM DTT, 20 pM duplex, mixed 1:1 with enzyme in 20 mM …
[1] = system: MUTYH N238S (MBP fusion) (Homo sapiens)
[2] = system: MUTYH V246F (MBP fusion) (Homo sapiens)
[3] = system: MUTYH R241Q (MBP fusion) (Homo sapiens)
[4] = system: MUTYH R309C (MBP fusion) (Homo sapiens)
[5] = THF (abasic analog) opposite 8-oxoguanine
[6] = upper limit estimate, THF (abasic analog) opposite 8-oxoguanine
[7] = table unit header missing, 2'-fluoro-2'-deoxyadenosine opposite 8-oxoguanine

| Substance | Kd [1, 5] [pM] | Kd [2, 6] [pM] | Kd [3, 5] [pM] | Kd [4, 6] [pM] | Kd [1, 7] [pM] | Kd [2, 7] [pM] | Kd [3, 7] [pM] | Kd [4, 7] [pM] |
| --- | --- | --- | --- | --- | --- | --- | --- | --- |
| Duplex 2 THF:OG (product analog), 30 bp | 46 | < 10 | 467 | < 10 | – | – | – | – |
| Duplex 2 fA:OG (substrate analog), 30 bp | – | – | – | – | 124 | 50 | 629 | 246 |
